Data published in paper PMC5814221.

Target: Growth arrest-specific protein 6 (GAS6) (UniProt Q63772)
Sequence of UniProt Q63772 (Q63772 28-674): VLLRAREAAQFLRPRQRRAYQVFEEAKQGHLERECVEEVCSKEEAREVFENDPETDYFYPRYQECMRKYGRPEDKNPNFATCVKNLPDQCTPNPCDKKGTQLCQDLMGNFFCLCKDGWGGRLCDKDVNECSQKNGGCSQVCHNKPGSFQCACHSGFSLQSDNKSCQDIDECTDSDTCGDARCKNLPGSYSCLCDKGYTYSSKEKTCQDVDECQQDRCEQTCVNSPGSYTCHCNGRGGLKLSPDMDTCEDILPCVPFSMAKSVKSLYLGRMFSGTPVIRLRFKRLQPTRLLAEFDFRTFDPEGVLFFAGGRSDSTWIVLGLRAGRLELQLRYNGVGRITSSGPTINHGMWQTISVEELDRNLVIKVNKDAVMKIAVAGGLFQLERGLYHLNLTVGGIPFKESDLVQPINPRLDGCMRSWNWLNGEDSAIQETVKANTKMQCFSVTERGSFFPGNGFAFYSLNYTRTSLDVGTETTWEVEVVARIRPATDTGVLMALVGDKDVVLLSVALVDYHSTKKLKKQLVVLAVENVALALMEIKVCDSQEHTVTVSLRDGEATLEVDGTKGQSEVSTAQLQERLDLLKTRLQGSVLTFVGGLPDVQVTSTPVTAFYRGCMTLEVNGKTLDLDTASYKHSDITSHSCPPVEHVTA

- proliferation of RSC96 cells (WST-1) treated with AXL-Fc, percent decrease after 24 h, 48 h and 72 h (31.3%, 35.1%, 43.1%): 43.1 % decreased
Substance: AXL-Fc protein fragment (soluble form of AXL) (Fc fusion)
